We go through one molecule from article PMC10417383, “DNA-Binding Activity of CAMTA3 Is Essential for Its Function: Identification of Critical Amino Acids for Its Transcriptional Activity”.

This data set deals with T1, CAMTA3 CG-1 WT (Arabidopsis thaliana, UniProt Q8GSA7 1-153).
T1 sequence: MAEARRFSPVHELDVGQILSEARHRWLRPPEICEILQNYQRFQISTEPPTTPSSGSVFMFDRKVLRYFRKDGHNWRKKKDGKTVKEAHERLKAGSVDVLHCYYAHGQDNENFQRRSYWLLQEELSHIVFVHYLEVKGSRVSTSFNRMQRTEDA
Nature of the data set: EMSA; complex detected from 25 ng protein, good binding at 50 ng or more; 20 fmol probe; reduced by unlabeled PDF1.4 competitor; 1X LightShift EMSA binding buffer, 50 ng/ul poly(dI-dC), 20 fmol probe in 20 ul, +/- 4 pmol unlabeled DNA, room temperature 30 min; 5% native PAGE, 0.5X TBE; pH and salt not given. The note with it: protein: recombinant; tags: His (pET28a); label: 3'-biotin on strand 1; blunt.

B1: PDF1.4 promoter probe (dsDNA)
DNA 1: CGTGAAAGTCACGCGCCAAGAACAAA
DNA 2: TTTGTTCTTGGCGCGTGACTTTCACG
As to B1, the binding result is recorded as “binds”.
